Eleven substances from article PMC6143741 can be followed below.

Holding throughout (experiment): MYTH quantitative β-Gal activity assay
Assay [1] addresses TbMCUc without the mitochondrial targeting signal, MYTH bait or prey. The conditions noted are these: n = 3; 8 colonies for each independent experiment; parent: est. 140; read off a plot.
Assay [2] addresses TbMCUd without the mitochondrial targeting signal, MYTH bait or prey. The following applies: n = 3; 8 colonies for each independent experiment; parent: est. 120; read off a plot.
In the next assay the target is TbMCUcΔ2. The conditions noted are these: n = 3; 8 colonies were used in each independent experiment; read off a plot.
The next assay addresses TbMCUcΔ3. The following applies: n = 3; 8 colonies were used in each independent experiment; read off a plot.
The target in a further assay is TbMCUcΔ4. The conditions noted are these: n = 3; 8 colonies were used in each independent experiment; read off a plot.
A further assay addresses TbMCUdΔ2. The conditions noted are these: n = 3; 8 colonies were used in each independent experiment; read off a plot.
For the next assay, the target named is TbMCUdΔ3. The following applies: n = 3; 8 colonies were used in each independent experiment; read off a plot.
In the next assay the target is TbMCUdΔ4. The conditions noted are these: n = 3; 8 colonies were used in each independent experiment; read off a plot.

Turning to “TbMCU without the mitochondrial targeting signal, MYTH bait or prey Q213A; V216F; I217F; F222A”, the response in assay [1] is 100 units; in assay [2] it was 88 units. Regarding “TbMCU without the mitochondrial targeting signal, MYTH bait or prey TMH1 and TMH2 each replaced by WALP (…)”, the response in assay [1] was found to be 15 units; in assay [2], 12 units. Regarding “TbMCU without the mitochondrial targeting signal, MYTH bait or prey TMH1 replaced by WALP (…)”, the response in assay [1] is 82 units; in assay [2] it was 78 units. As to “TbMCU without the mitochondrial targeting signal, MYTH bait or prey TMH2 replaced by WALP (…)”, the values for the response in assay [1] and in assay [2] were 50 units and 45 units, respectively. On the same counts, the results for “TbMCU without the mitochondrial targeting signal, MYTH bait or prey Y235A; F236A; T241E; Y248A” are 65 units and 58 units. Regarding “TbMCUc without the mitochondrial targeting signal, MYTH bait or prey MCUcΔ2: TMH1 replaced by WALP (…), in bait and prey”, the response in the assay with TbMCUcΔ2 is 85 units.

In the assay with TbMCUcΔ3, “TbMCUc without the mitochondrial targeting signal, MYTH bait or prey MCUcΔ3: TMH2 replaced by WALP (…), in bait and prey” gave a response of 55 units.

For “TbMCUc without the mitochondrial targeting signal, MYTH bait or prey MCUcΔ4: TMH1 and TMH2 each replaced by WALP (…), in bait and prey”, in the assay with TbMCUcΔ4, the response came out at 20 units. The substance “TbMCUd without the mitochondrial targeting signal, MYTH bait or prey MCUdΔ2: TMH1 replaced by WALP (…), in bait and prey” came in with a response with TbMCUdΔ2 of 70 units.

Take “TbMCUd without the mitochondrial targeting signal, MYTH bait or prey MCUdΔ3: TMH2 replaced by WALP (…), in bait and prey”: in the assay with TbMCUdΔ3, the response was 52 units.

With “TbMCUd without the mitochondrial targeting signal, MYTH bait or prey MCUdΔ4: TMH1 and TMH2 each replaced by WALP (…), in bait and prey”, the response in the assay with TbMCUdΔ4 turned out to be 15 units.
